Results taken from patent US6528275B1, “Substrates and inhibitors of proteolytic enzymes” (Peptide Therapeutics Limited, priority 1996, dated 2003).

Tests used:
Experiment in all cases: Der pI substrate assay with FRET peptides (fluorescence, Km, kcat/Km)
Assay type in all cases: biochemical, house dust mite
Settings in all cases: other: purified Der pI; peptides SEQ ID Nos. 1-76; pH 8.25
[1] = substrate: CC(C)[C@H](NC(=O)c1ccccc1N)C(=O)N[C@@H](C)C(=O)N[C@@H](CCCCN)C(=O)N[C@@H](CO)C(=O)N[C@@H](Cc1ccc(O)c([N+](=O)[O-])c1)C(=O)N[C@@H](CC(=O)O)C(N)=O
Method: (§1) Using the general techniques described above, the following compounds were prepared and assayed as potential substrates against Der pI purified as described above.
(§2) Each mixture of 20 compounds in the libraries of the apparatus described herein was screened at a concentration of 1.0 μM per compound in an assay against the cysteinyl protease Der pI.
(§3) Plate assays were carried out in 96 well plate format, using 0.1 ug of Der pI per 100 μL assay volume in each well and using 20 μM of the substrate. All assays were performed in Assay Buffer (AB; 50 mM potassium phosphate, pH 8.25 containing 1 mM ethylenediaminetetraacetic acid (EDTA) and 1 mM dithiothreitol (DTT). The Der pI enzyme is pre-activated by addition of DTT and this in incubated at room temperature for 5 min. prior to initiation of the assay. As an example for the screening methodology, each well contains a 5 μL of a 20 μM solution of the test compound in DMSO, 10 μL of a 200 μM aqueous solution of the substrate, 2, and 85 μL of Der pI in AB is added to initiate the reaction. Enzyme activity is monitored by fluorescence using 320 nm for excitation and 420 nm for the emission wavelengths using a Labsystems Fluroskan Ascent machine. Kinetic measurements were carried out using a Hitachi F-4500 Fluorescence Spectrophotometer.

[2] = substrate: CCCC[C@H](NC(=O)[C@H](C)NC(=O)[C@@H](NC(=O)[C@H](CCCCN)NC(=O)c1ccccc1N)C(C)C)C(=O)N[C@@H](CO)C(=O)N[C@@H](Cc1ccc(O)c([N+](=O)[O-])c1)C(=O)N[C@@H](CC(=O)O)C(N)=O
Method: as §1, §2, §3

[3] = substrate: CCCC[C@H](NC(=O)[C@H](C)NC(=O)[C@@H](NC(=O)[C@H](Cc1cccc2ccccc12)NC(=O)c1ccccc1N)C(C)C)C(=O)N[C@@H](CO)C(=O)N[C@@H](Cc1ccc(O)c([N+](=O)[O-])c1)C(=O)N[C@@H](CC(=O)O)C(N)=O
Method: as §1, §2, §3

[4] = substrate: CC(C)CC[C@H](NC(=O)[C@H](C)NC(=O)[C@H](Cc1ccc(-c2ccccc2)cc1)NC(=O)c1ccccc1N)C(=O)N[C@@H](Cc1ccc(O)cc1)C(=O)N[C@@H](Cc1ccc(O)c([N+](=O)[O-])c1)C(=O)N[C@@H](CC(=O)O)C(N)=O
Method: as §1, §2, §3

[5] = substrate: CC(C)CC[C@H](NC(=O)[C@H](C)NC(=O)[C@H](Cc1ccc(-c2ccccc2)cc1)NC(=O)c1ccccc1N)C(=O)N[C@@H](CC(=O)O)C(=O)N[C@@H](Cc1ccc(O)c([N+](=O)[O-])c1)C(=O)N[C@@H](CC(=O)O)C(N)=O
Method: as §1, §2, §3

[6] = substrate: CC(C)[C@H](NC(=O)c1ccccc1N)C(=O)N[C@@H](C)C(=O)N[C@H](C(=O)N[C@@H](CO)C(=O)N[C@@H](Cc1ccc(O)c([N+](=O)[O-])c1)C(=O)N[C@@H](CC(=O)O)C(N)=O)[C@@H](C)O
Method: as §1, §2, §3

[7] = substrate: CC(C)CC[C@H](NC(=O)[C@H](C)NC(=O)[C@H](Cc1ccc(-c2ccccc2)cc1)NC(=O)c1ccccc1N)C(=O)N[C@H](C(=O)N[C@@H](Cc1ccc(O)c([N+](=O)[O-])c1)C(=O)N[C@@H](CC(=O)O)C(N)=O)C(C)(C)C
Method: as §1, §2, §3

[8] = substrate: CC(C)CC[C@H](NC(=O)[C@H](C)NC(=O)[C@H](CC[S+](C)[O-])NC(=O)c1ccccc1N)C(=O)N[C@@H](CO)C(=O)N[C@@H](Cc1ccc(O)c([N+](=O)[O-])c1)C(=O)N[C@@H](CC(=O)O)C(N)=O
Method: as §1, §2, §3

[9] = substrate: CC(C)CC[C@H](NC(=O)[C@H](C)NC(=O)[C@H](Cc1ccc(-c2ccccc2)cc1)NC(=O)c1ccccc1N)C(=O)N[C@@H](Cc1cccnc1)C(=O)N[C@@H](Cc1ccc(O)c([N+](=O)[O-])c1)C(=O)N[C@@H](CC(=O)O)C(N)=O
Method: as §1, §2, §3

[10] = substrate: CCCC[C@H](NC(=O)[C@H](C)NC(=O)[C@@H](NC(=O)[C@H](Cc1ccc(-c2ccccc2)cc1)NC(=O)c1ccccc1N)C(C)C)C(=O)N[C@@H](CO)C(=O)N[C@@H](Cc1ccc(O)c([N+](=O)[O-])c1)C(=O)N[C@@H](CC(=O)O)C(N)=O
Method: as §1, §2, §3

[11] = substrate: CC(C)CC[C@H](NC(=O)[C@H](C)NC(=O)[C@H](Cc1ccc(-c2ccccc2)cc1)NC(=O)c1ccccc1N)C(=O)N[C@H](C(=O)N[C@@H](Cc1ccc(O)c([N+](=O)[O-])c1)C(=O)N[C@@H](CC(=O)O)C(N)=O)[C@@H](C)O
Method: as §1, §2, §3

[12] = substrate: CC(C)CC[C@H](NC(=O)[C@H](CCCCN)NC(=O)[C@@H](NC(=O)c1ccccc1N)C(C)C)C(=O)N[C@@H](CO)C(=O)N[C@@H](Cc1ccc(O)c([N+](=O)[O-])c1)C(=O)N[C@@H](CC(=O)O)C(N)=O
Method: as §1, §2, §3

B1: Der pI (Dermatophagoides pteronyssinus) (protein)
chain: TNACSINGNAPAEIDLRQMRTVTPIRMQGGCGSCWAFSGVAATESAYLAYRNQSLDLAEQELVDCASQHGCHGDTIPRGIEYIQHNGVVQESYYRYVAREQSCRRPNAQRFGISNYCQIYPPNVNKIREALAQTHSAIAVIIGIKDLDAFRHYDGRTIIQRDNGYQPNYHAVNIVGYSNAQGVDYWIVRNSWDTNWGDNGYGYFAANIDLMMIEEYPYVVIL
notes: tissue SmithKline-Beecham, U.K (crude mite extract); host or cells: crude house dust mite extract
Km [1]: 14 µM | Km [2]: 15 µM | Km [3]: 17 µM | Km [4]: 3 µM | Km [5]: 5.0 µM | Km [6]: 6 µM | Km [7]: 4 µM | Km [8]: 20 µM | Km [9]: 4 µM | Km [10]: 10 µM | Km [11]: 2.5 µM | Km [12]: 35 µM
